Data on one molecule can be found in patent publication US20190256588A1 (BEIJING HANMI PHARM, published 2019).

Assay [1] has as its target recombinant monkey IL-17A (monkey). The assay is described as follows: ELISA, recombinant monkey IL-17A coated on the plate, HRP anti-human IgG, OD450nm. On the procedure: (§1) Recombinant human IL-17A, monkey IL-17A, rat IL-17A and mouse IL-17A (all purchased from Sino Biological Inc.), were coated on a 96-well high-absorbing ELISA plate with a carbonate buffer solution with pH 9.6, the coating concentration was […], the coating amount was 100 μL per well, and the coating was carried out at 4° C. overnight. The plate was washed five times with PBST and blocked with 300 μL/well of PBST containing 1% BSA, and then incubated at 25° C. for 1 hour. The plate was washed five times with PBST. […] The plate was washed five times with PBST. Then, horseradish peroxidase-labeled anti-human IgG antibody (Chemicon, Catalog Number AP309P) 1:2000 diluted in PBST containing 1% BSA was added, 100 μL per well, incubated at 25° C. for 1 hour. The plate was washed five times with PBST. 100 μL/well of colorimetric substrate TMB was added and incubated at room temperature for 10 minutes. Color development was terminated by adding 100 μL/well of 1 M H₂SO₄. The absorbance at 450 nm was read on a microplate reader.

Assay [2] addresses T1, recombinant human IFN-g (human, UniProt P01579 24-166, limits assumed).
T1 sequence (looked up): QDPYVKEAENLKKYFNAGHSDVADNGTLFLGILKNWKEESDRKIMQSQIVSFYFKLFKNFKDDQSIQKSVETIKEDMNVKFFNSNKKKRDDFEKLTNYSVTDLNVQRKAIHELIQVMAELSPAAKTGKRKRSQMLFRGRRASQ
The assay is described as follows: ELISA, cytokine coated on plate at 1 µg/mL. On the procedure: (§2) Recombinant human IL-17A, IL-17B, IL-17C, IL-17D, IL-17E, IL-17F, IL-1, IL-2, IL-6, IL-8, IL-21, IL-22, IL-23, IFN-g and TNFα (purchased from Sino Biological Inc. or R&D systems) were coated on a 96-well high-absorbing ELISA plate with a carbonate buffer solution with pH 9.6, the coating concentration was 1 μg/mL, the coating amount was 100 μL per well, and the coating was carried ax 4° C. out overnight. The plate was washed five times with PBST and blocked with 300 μL/well of PBST containing 1% BSA and incubated at 25° C. for 1 hour. The plate was washed five times with PBST. […] The plate was washed five times with PBST. Then, horseradish peroxidase-labeled anti-human IgG antibody (Chemicon, Catalog Number AP309P) 1:2000 diluted in PBST containing 1% BSA was added, 100 μL was added to each well, incubated at 25° C. for 1 hour. The plate was washed five times with PBST. 100 μL/well of colorimetric substrate TMB was added and incubated at room temperature for 10 minutes. Color development was terminated by adding 100 μL/well of 1 M H₂SO₄. The absorbance at 450 nm was read on a microplate reader.
(§3) Recombinant human IL-17A, IL-17B, IL-17C, IL-17D, IL-17E, IL-17F, IL-1, IL-2, IL-6, IL-8, IL-21, IL-22, IL-23, IFN-g and TNFα (purchased from Sino Biological Inc. or R&D systems) were coated on a 96-well high-absorbing ELISA plate with a carbonate buffer solution with pH 9.6, the coating concentration was 1 μg/mL, the coating amount was 100 μL per well, and the coating was carried at 4° C. out overnight. Washed five times with PBST. Blocked with 300 μL/well of PBST containing 1% BSA and incubated at 25° C. for 1 hour. Washed five times with PBST.

Assay [3] has as its target recombinant human TNFα (human, UniProt P01375 77-233). The assay is described as follows: ELISA, cytokine coated on plate at 1 µg/mL. As for the experimental part:
as §2, §3

In assay [4] the target is T2, recombinant human IL-23 (human, UniProt Q9NPF7 20-189; P29460 23-328).
T2 sequence (looked up) 1: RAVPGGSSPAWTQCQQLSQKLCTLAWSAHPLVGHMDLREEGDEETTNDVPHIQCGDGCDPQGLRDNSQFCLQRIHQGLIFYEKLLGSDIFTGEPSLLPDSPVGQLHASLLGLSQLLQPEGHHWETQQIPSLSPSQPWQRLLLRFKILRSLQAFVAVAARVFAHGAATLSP
T2 sequence (looked up) 2: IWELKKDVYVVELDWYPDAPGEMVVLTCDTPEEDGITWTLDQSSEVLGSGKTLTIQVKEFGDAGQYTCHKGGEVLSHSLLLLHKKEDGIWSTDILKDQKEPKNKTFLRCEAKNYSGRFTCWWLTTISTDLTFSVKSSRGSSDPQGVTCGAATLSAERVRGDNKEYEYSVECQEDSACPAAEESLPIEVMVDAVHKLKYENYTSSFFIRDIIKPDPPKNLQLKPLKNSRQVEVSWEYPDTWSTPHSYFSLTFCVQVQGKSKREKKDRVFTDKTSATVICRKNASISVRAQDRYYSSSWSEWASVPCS
Briefly: ELISA, cytokine coated on plate at 1 µg/mL. On the procedure:
as §2, §3

Assay [5] deals with recombinant human IL-8 (human, UniProt P10145 28-99, limits assumed). The assay is described as follows: ELISA, cytokine coated on plate at 1 µg/mL. On the procedure: as §2, §3
Sequence of recombinant human IL-8 (P10145 28-99 limits assumed): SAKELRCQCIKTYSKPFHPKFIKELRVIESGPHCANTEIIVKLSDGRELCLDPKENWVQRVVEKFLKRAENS
The target in assay [6] is recombinant human IL-2 (human, UniProt P60568 21-153). The assay is described as follows: ELISA, cytokine coated on plate at 1 µg/mL. On the procedure:
as §2, §3

The target in assay [7] is T3, recombinant rat IL-17A (rat, UniProt Q61453 18-150, limits assumed).
T3 sequence (looked up): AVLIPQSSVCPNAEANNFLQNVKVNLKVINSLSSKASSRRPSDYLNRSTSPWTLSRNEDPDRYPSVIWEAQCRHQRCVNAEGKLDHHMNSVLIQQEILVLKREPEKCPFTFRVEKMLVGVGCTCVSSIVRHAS
Briefly: ELISA, recombinant rat IL-17A coated on the plate, HRP anti-human IgG, OD450nm. As for the experimental part: as §1

The target in assay [8] is T4, recombinant mouse IL-17A (mouse, UniProt Q62386 26-158, limits assumed).
T4 sequence (looked up): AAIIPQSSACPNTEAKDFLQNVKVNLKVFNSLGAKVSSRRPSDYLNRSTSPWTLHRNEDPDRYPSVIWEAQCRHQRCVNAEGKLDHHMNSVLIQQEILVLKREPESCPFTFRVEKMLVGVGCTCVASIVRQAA
Briefly: ELISA, recombinant mouse IL-17A coated on the plate, HRP anti-human IgG, OD450nm. On the procedure: as §1

Sequence of recombinant human TNFα (P01375 77-233 limits assumed): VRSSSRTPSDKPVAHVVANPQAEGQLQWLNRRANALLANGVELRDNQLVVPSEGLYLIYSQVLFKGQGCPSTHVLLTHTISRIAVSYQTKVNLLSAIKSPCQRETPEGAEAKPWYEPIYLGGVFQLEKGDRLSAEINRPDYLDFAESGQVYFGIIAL
Sequence of recombinant human IL-2 (P60568 21-153 limits assumed): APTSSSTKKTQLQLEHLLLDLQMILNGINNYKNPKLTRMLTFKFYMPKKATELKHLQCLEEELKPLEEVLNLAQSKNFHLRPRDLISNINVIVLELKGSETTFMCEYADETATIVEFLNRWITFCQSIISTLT

B1: anti-human IL-17A chimeric monoclonal antibody (antibody, human IgG1, kappa, V domains shown)
VH: DVQVQESGPGLVKPSQSLSLTCTVTGNSITSYYAWNWIRQFPGNKLEWMGYITYSGTTSYNPSLKSRISITRDTSKNQFFLQLNSVTTEDTATYYCAREEYDDIYAVDYWGQGTSVTVSS
VL: IIVMTQTPLSLPVSLGDQASISCRSSQSLVHSNGNTYLHWYLQKPGQSPKLLIYKVYNRFSGVPDRFSGSGSGTDFTLKISRVEAEDLGVYFCSQSTHFPTFGGGTKLEIKR
notes: expressed in 293F cells; also called Anti-human IL-17A Chimeric Antibody; chimeric anti-human IL-17A monoclonal antibody
Turning to B1, the EC50 in assay [1] is 0.09 nM. In addition, the binding result is on record as “no binding” in assay [2]; “no binding” in assay [3]; “no binding” in assay [4]; “no binding” in assay [5]; “no binding” in assay [6]; “no binding (tested: about 20 nM)” in assay [7]. For the same molecule, the binding result in assay [8] is “no binding (tested: about 20 nM)”.
